Measurements taken from US11505811B2, “Method for the preparation of 2,4-dihydroxybutyrate” (ADISSEO FRANCE S.A.S., priority 2012, dated 2022).
Residue numbers refer to the chain shown, from its start. Names and notes keep the numbering of the source.

Legend:
Conditions in all cases: other: pH 7, 37° C., 0.25 mM NADH
[1] = substrate: CC(=O)C(=O)O; test: OHB/pyruvate reductase assay, Gs-Ldh; format: biochemical, Geobacillus stearothermophilus
Text: (§1) The genes coding for (L)-malate dehydrogenase in Escherichia coli, Ec-mdh (SEQ ID NO: 1), (D)-lactate dehydrogenase in E. coli, Ec-ldhA (SEQ ID NO: 3), (L)-lactate dehydrogenase of Lactococcus lactis, Ll-ldhA (SEQ ID NO: 5), (L)-lactate dehydrogenase of Bacillus subtilis, Bs-ldh (SEQ ID NO: 7), (L)-lactate dehydrogenase of Geobacillus stearothermophilus, Gs-ldh (SEQ ID NO: 9), the two isoforms of the (L)-lactate dehydrogenase of Oryctalagus cuniculus, Oc-ldhA (SEQ ID NO: 11 and SEQ ID NO: 13), were amplified by PCR using the high-fidelity polymerase Phusion™ (Fermentas) and the primers listed in Table 1. Genomic DNAs of E. coli MG1655, L. lactis IL1403, and B. subtilis strain 168 were used as the template. The genes Oc-ldhA, and Gs-ldh were codon-optimized for expression in E. coli and synthesized by MWG Eurofins. The primers introduced restriction sites (Table 1) upstream of the start codon and downstream of the stop codon, respectively, facilitating the ligation of the digested PCR products into the corresponding sites of the pET28a+ (Novagen) expression vector using T4 DNA ligase (Fermentas). Ligation products were transformed into E. coli DH5a cells (NEB). […]

[2] = substrate: O=C(O)C(=O)CCO; test: OHB/pyruvate reductase assay, Gs-Ldh; format: biochemical, Geobacillus stearothermophilus
Text: as §1

[3] = substrate: CC(=O)C(=O)O; test: OHB/pyruvate reductase assay, Ec-LdhA; format: biochemical, Escherichia coli
Text: as §1

[4] = substrate: O=C(O)C(=O)CCO; test: OHB/pyruvate reductase assay, Ec-LdhA; format: biochemical, Escherichia coli
Text: as §1

[5] = substrate: O=C(O)CC(=O)C(=O)O; test: OHB/oxaloacetate reductase assay (NADH oxidation at 340 nm), Ec-Mdh wild type; format: biochemical, Escherichia coli
Text: as §1

[6] = substrate: O=C(O)C(=O)CCO; test: OHB/oxaloacetate reductase assay, Ec-Mdh R81A M85Q I12V; format: biochemical, Escherichia coli
Description: (§2) Enzymatic assays: The reaction mixture contained 60 mM Hepes (pH 7), 50 mM potassium chloride, 5 mM MgCl2, 0.25 mM NADH, (optionally 5 mM fructose-1,6-bisphosphate) (all products from Sigma), and appropriate amounts of purified malate or lactate dehydrogenase or cell extract. Reactions were started by adding appropriate amounts of 2-oxo-4-hydroxybutyrate (OHB), pyruvate, or oxaloacetate (OAA). Enzymatic assays were carried out at 37° C. in 96-well flat bottomed microtiter plates in a final volume of 250 μL. The reactions were followed by the characteristic absorption of NADH at 340 nm (εNADH=6.22 mM^−1 cm^−1) in a microplate reader (BioRad 680XR).
Site-directed mutagenesis of the mdh gene from E. coli was carried out as described in Example 2 using the primers listed in Table 5. Plasmid pET28-Ec-mdh was used as the template.
Mutant enzymes were expressed, purified and tested for OHB and oxaloacetate reductase activity as described in Example 1. […] The mutation R81A in Ec-Mdh was combined with additional changes in the protein sequence.

[7] = substrate: CC(=O)C(=O)O; test: OHB/pyruvate reductase assay, Ll-Ldh wild type; format: biochemical, Lactococcus lactis
Text: as §1

[8] = substrate: CC(=O)C(=O)O; test: OHB/pyruvate reductase assay, Ll-LdhA Q85N I226V; format: biochemical, Lactococcus lactis
Description: as §2
(§3) Site-directed mutagenesis of the L. lactis ldhA gene was carried out using the pET28-Ll-ldhA plasmid as the template. Point mutations to change the amino acid sequence were introduced by PCR (Phusion 1U, HF buffer 20% (v/v), dNTPs 0.2 mM, direct and reverse primers 0.04 μM each, template plasmid 30-50 ng, water) using the oligonucleotide pairs listed in Table 3. The genes mutated by PCR contained a new restriction site listed in Table 3 (introduced using silent mutations) in addition to the functional mutation to facilitate identification of mutated clones. The PCR products were digested by DpnI at 37° C. for 1 h to remove template DNA, and transformed into competent E. coli DH5α (NEB) cells. […]

[9] = substrate: O=C(O)C(=O)CCO; test: OHB/pyruvate reductase assay, Ll-LdhA Q85N I226V; format: biochemical, Lactococcus lactis
Description: as §2, §3

[10] = substrate: CC(=O)C(=O)O; test: OHB/pyruvate reductase assay, Ll-LdhA Q85N; format: biochemical, Lactococcus lactis
Description: as §2, §3

[11] = substrate: O=C(O)C(=O)CCO; test: OHB/pyruvate reductase assay, Ll-LdhA Q85N; format: biochemical, Lactococcus lactis
Description: as §2, §3

B1: Geobacillus stearothermophilus (L)-lactate dehydrogenase Gs-Ldh, SEQ ID NO: 10 (Geobacillus stearothermophilus) (protein)
chain: MKNNGGARVVVIGAGFVGASYVFALMNQGIADEIVLIDANESKAIGDAMDFNHGKVFAPKPVDIWHGDYDDCRDADLVVICAGANQKPGETRLDLVDKNIAIFRSIVESVMASGFQGLFLVATNPVDILTYATWKFSGLPHERVIGSGTILDTARFRFLLGEYFSVAPQNVHAYIIGEHGDTELPVWSQAYIGVMPIRKLVESKGEEAQKDLERIFVNVRDAAYQIIEKKGATYYGIAMGLARVTRAILHNENAILTVSAYLDGLYGERDVYIGVPAVINRNGIREVIEIELNDDEKNRFHHSAATLKSVLARAFTR
notes: made in house; host or cells: E. coli BL21 (DE3) star
[1]
  Km: 1200 µM
[2]
  Km: 1300 µM

B2: Escherichia coli (D)-lactate dehydrogenase Ec-LdhA, SEQ ID NO: 4 (Escherichia coli K-12) (protein)
chain: MKLAVYSTKQYDKKYLQQVNESFGFELEFFDFLLTEKTAKTANGCEAVCIFVNDDGSRPVLEELKKHGVKYIALRCAGFNNVDLDAAKELGLKVVRVPAYDPEAVAEHAIGMMMTLNRRIHRAYQRTRDANFSLEGLTGFTMYGKTAGVIGTGKIGVAMLRILKGFGMRLLAFDPYPSAAALELGVEYVDLPTLFSESDVISLHCPLTPENYHLLNEAAFEQMKNGVMIVNTSRGALIDSQAAIEALKNQKIGSLGMDVYENERDLFFEDKSNDVIQDDVFRRLSACHNVLFTGHQAFLTAEALTSISQTTLQNLSNLEKGETCPNELV
notes: as for B1
[3]
  Km: 1800 µM
[4]
  Km: 4800 µM

B3: Escherichia coli (L)-malate dehydrogenase Ec-Mdh, wild type, SEQ ID NO: 2 (Escherichia coli K-12) (protein)
chain: MKVAVLGAAGGIGQALALLLKTQLPSGSELSLYDIAPVTPGVAVDLSHIPTAVKIKGFSGEDATPALEGADVVLISAGVARKPGMDRSDLFNVNAGIVKNLVQQVAKTCPKACIGIITNPVNTTVAIAAEVLKKAGVYDKNKLFGVTTLDIIRSNTFVAELKGKQPGEVEVPVIGGHSGVTILPLLSQVPGVSFTEQEVADLTKRIQNAGTEVVEAKAGGGSATLSMGQAAARFGLSLVRALQGEQGVVECAYVEGDGQYARFFSQPLLLGKNGVEERKSIGTLSAFEQNALEGMLDTLKKDIALGEEFVNK
notes: as for B1
[5]
  Km: 40 µM

B4: Escherichia coli malate dehydrogenase Ec-Mdh variant R81A M85Q I12V, SEQ ID No. 108 (Escherichia coli K-12; I12V/M85Q/R81A) (protein)
chain: B3 chain with I12V, R81A, M85Q
[6]
  Km: 15000 µM

B5: Lactococcus lactis (L)-lactate dehydrogenase Ll-LdhA (Ll-Ldh), wild type, SEQ ID NO: 6 (Lactococcus lactis subsp. lactis Il1403) (protein)
chain: MADKQRKKVILVGDGAVGSSYAFALVNQGIAQELGIVDLFKEKTQGDAEDLSHALAFTSPKKIYSADYSDASDADLVVLTSGAPQKPGETRLDLVEKNLRITKDVVTKIVASGFKGIFLVAANPVDILTYATWKFSGFPKNRVVGSGTSLDTARFRQALAEKVDVDARSIHAYIMGEHGDSEFAVWSHANVAGVKLEQWFQENDYLNEAEIVELFESVRDAAYSIIAKKGATFYGVAVALARITKAILDDEHAVLPVSVFQDGQYGVSDCYLGQPAVVGAEGVVNPIHIPLNDAEMQKMEASGAQLKAIIDEAFAKEEFASAVKN
[7]
  Km: 2700 µM

B6: Lactococcus lactis (L)-lactate dehydrogenase A Ll-LdhA variant Q85N I226V (Q85NI226V), SEQ ID No. 32 (Lactococcus lactis subsp. lactis Il1403; I226V/Q85N) (protein)
chain: B5 chain with Q85N, I226V
[8]
  Km: 1400 µM
[9]
  Km: 3300 µM

B7: Lactococcus lactis (L)-lactate dehydrogenase A Ll-LdhA variant Q85N, SEQ ID No. 30 (Lactococcus lactis subsp. lactis Il1403; Q85N) (protein)
chain: B5 chain with Q85N
[10]
  Km: 22100 µM
[11]
  Km: 29200 µM
